This data set concerns the molecule itself. Nature of the data set: SEC. For orientation: Size exclusion chromatography separates by hydrodynamic size, large species first.

B1: DGCR8 NC1 (amino acid residues 276-751 of human DGCR8), Fe(III) heme-bound dimer (domain or fragment, UniProt Q8WYQ5 276-751, looked up)
chain: DGETSVQPMMTKIKTVLKSRGRPPTEPLPDGWIMTFHNSGVPVYLHRESRVVTWSRPYFLGTGSIRKHDPPLSSIPCLHYKKMKDNEEREQSSDLTPSGDVSPVKPLSRSAELEFPLDEPDSMGADPGPPDEKDPLGAEAAPGALGQVKAKVEVCKDESVDLEEFRSYLEKRFDFEQVTVKKFRTWAERRQFNREMKRKQAESERPILPANQKLITLSVQDAPTKKEFVINPNGKSEVCILHEYMQRVLKVRPVYNFFECENPSEPFGASVTIDGVTYGSGTASSKKLAKNKAARATLEILIPDFVKQTSEEKPKDSEELEYFNHISIEDSRVYELTSKAGLLSPYQILHECLKRNHGMGDTSIKFEVVPGKNQKSEYVMACGKHTVRGWCKNKRVGKQLASQKILQLLHPHVKNWGSLLRMYGRESSKMVKQETSDKSVIELQQYAKKNKPNLHILSKLQEEMKRLAEEREETRK
For B1, the binding result is given as “binds”.

The record behind these values is publication PMC4788497 (Methods in molecular biology (Clifton, N.J.), 2014).
